# Experimental data published in the RNAGym collection of RNA variant scans (doi:10.1093/molbev/msab373).
# B1: Azoarcus group I ribozyme (parent)
# chain: GUGCCUUGCGCCGGGAAACCACGCAAGGGAUGGUGUCAAAUUCGGCGAAACCUAAGCGCCCGCCCGGGCGUAUGGCAACGCCGAGCCAAGCUUCGGCGCCUGCGCCGAUGAAGGUGUAGAGACUAGACGGCACCCACCUAAGGCAAACGCUAUGGUGAAGGCAUAGUCCAGGGAGUGGCGAAAGUCACACAAACCGG
# Variants of: B1
# Test: reverse-splicing fitness (ratio to wild type); higher = more active; in vitro selection; Mg2+ level not given
# Outline: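 An in vitro group I ribozyme library with randomized positions was T7-transcribed and gel-purified. In triplicate, 10 pmol RNA in EPPS pH 7.5 was reacted with 50 pmoles of a 30-nt RNA substrate for 1 h at 37 °C across several added MgCl2 levels (1–48 mM), then stopped with EDTA. Products were reverse transcribed from a substrate-complementary primer, PCR-amplified and sequenced (HiSeq 4000). Fitness is a variant's read proportion after selection over that before, normalised to wild type.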
row,Variant,reverse-splicing fitness
1,C82A A111C A120C C150G C169G,0.00682
2,C82A A111C A120C C150G C169A,0.00831
3,C82A A111C A120C C150G C169U,0.0115
4,C82A A111C A120C C169G,0.0083
5,C82A A111C A120C C169U,0.0124
6,C82A A111C A120C C169A,0.00922
7,C82A A111C A120C A145G C150G C169U U176A,0.0109
8,C82A A111C A120C A145G C150G C169U U176C,0.0109
9,C82A A111C A120C A145G C150G C169U U176G,0.00808
10,C82A A111C A120G A145G C150U C169A,0.0111
11,C82A A111C A120G A145G C150U C169G,0.0106
12,C82A A111C A120G A145G C150G U176G,0.00573
13,C82A A111C A120G A145G C150G U176A,0.00663
14,C82A A111C A120G A145G C150G U176C,0.0111
15,C82A A111C A120C C150G C169A U176G,0.00778
16,C82A A111C A120C C150G C169A U176C,0.0121
17,C82A A111C A120C C150G C169A U176A,0.00991
18,C82A A111C A120C A145U C150A C169U U176C,0.0143
19,C82A A111C A120C A145U C150A C169U U176A,0.014
20,C82A A111C A120C A145U C150A C169U U176G,0.00918
21,C82A A111C A120G A145C C150A C169U U176C,0.00893

row,Variant,reverse-splicing fitness
1,C82A A111C A120G A145C C150A C169U U176G,0.00495
2,C82A A111C A120G A145C C150A C169U U176A,0.0142
3,C82A A111C A120C A145C C150U C169A U176G,0.00751
4,C82A A111C A120C A145C C150U C169A U176C,0.0112
5,C82A A111C A120C A145C C150U C169A U176A,0.0145
6,C82A A111C A120C A145C C169G U176G,0.0074
7,C82A A111C A120C A145C C169G U176A,0.0258
8,C82A A111C A120C A145C C169G U176C,0.0213
9,C82A A111C A120C C150U C169U U176C,0.0139
10,C82A A111C A120C C150U C169U U176G,0.0075
11,C82A A111C A120C C150U C169U U176A,0.0177
12,C82A A111C A120G A145G C150G C169U U176A,0.0114
13,C82A A111C A120G A145G C150G C169U U176C,0.0123
14,C82A A111C A120G A145G C150G C169U U176G,0.00784
15,C82A A111C A120G A145C C169G,0.00901
16,C82A A111C A120G A145C C169U,0.00846
17,C82A A111C A120G A145C C169A,0.00659
18,C82A A111C A120C C150U C169G,0.00849
19,C82A A111C A120C C150U C169A,0.0121
20,C82A A111C A120C C150U C169U,0.0115
21,C82A A111C A120C A145U C150A C169G U176A,0.0154

row,Variant,reverse-splicing fitness
1,C82A A111C A120C A145U C150A C169G U176G,0.00745
2,C82A A111C A120C A145U C150A C169G U176C,0.0188
3,C82A A111C A120C A145G C150U C169U U176A,0.0121
4,C82A A111C A120C A145G C150U C169U U176C,0.0128
5,C82A A111C A120C A145G C150U C169U U176G,0.00717
6,C82A A111C A120C C150G C169G U176C,0.00606
7,C82A A111C A120C C150G C169G U176G,0.00646
8,C82A A111C A120C C150G C169G U176A,0.00786
9,C82A A111C A120G A145C C150G C169U,0.00668
10,C82A A111C A120G A145C C150G C169G,0.00683
11,C82A A111C A120G A145C C150G C169A,0.00757
12,C82A A111C A120C A145G C150G C169A U176A,0.0153
13,C82A A111C A120C A145G C150G C169A U176G,0.00798
14,C82A A111C A120C A145G C150G C169A U176C,0.0121
15,C82A A111C A120C A145C C150G C169U U176G,0.00564
16,C82A A111C A120C A145C C150G C169U U176A,0.00758
17,C82A A111C A120C A145C C150G C169U U176C,0.0112
18,C82A A111C A120C A145C C150U C169U,0.0108
19,C82A A111C A120C A145C C150U C169G,0.00741
20,C82A A111C A120C A145C C150U C169A,0.0105
21,C82A A111C A120G A145C C150G U176A,0.00683

row,Variant,reverse-splicing fitness
1,C82A A111C A120G A145C C150G U176G,0.00311
2,C82A A111C A120G A145C C150G U176C,0.0141
3,C82A A111C A120C A145U C150A U176A,0.0112
4,C82A A111C A120C A145U C150A U176C,0.0164
5,C82A A111C A120C A145U C150A U176G,0.00638
6,C82A A111C A120C C150A C169U U176G,0.00868
7,C82A A111C A120C C150A C169U U176C,0.015
8,C82A A111C A120C C150A C169U U176A,0.0173
9,C82A A111C A120G A145C C150U C169U U176G,0.00482
10,C82A A111C A120G A145C C150U C169U U176A,0.0143
11,C82A A111C A120G A145C C150U C169U U176C,0.00813
12,C82A A111C A120C C150U C169G U176C,0.016
13,C82A A111C A120C C150U C169G U176G,0.00721
14,C82A A111C A120C C150U C169G U176A,0.0139
15,C82A A111C A120C A145U C169G,0.0102
16,C82A A111C A120C A145U C169U,0.0133
17,C82A A111C A120C A145U C169A,0.00864
18,C82A A111C A120G A145C C150A U176C,0.0105
19,C82A A111C A120G A145C C150A U176G,0.00559
20,C82A A111C A120G A145C C150A U176A,0.0103
